For 72 sequences, fraction ligated results are on record in the supplement of paper PMC6755084.

This data set deals with F1*sub RNA substrate (template-directed ligation). Put plainly: fraction ligated after 30 min (ligated reads / total reads); higher = more ligase activity; sequences stand for … in GAGACCGCAACTGAAAAGTTGT…AGTTCTGCACGTAGAAGCAAAAGGC
As to conditions: 42 °C. Here is the method:
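Chip-synthesised pool of F1* ligase ribozyme variants (all single and double substitutions, single, double and triple deletions in the catalytic core and GAA bulge, plus designed variants) was transcribed with T7 and reacted as a pool with excess substrate F1*sub for 30 min at 42 C in 50 mM EPPS pH 8.5, 25 mM MgCl2. Ligated and unligated bands were separated by PAGE, barcoded by RT and deep sequenced; fraction ligated = ligated reads / total reads per variant, relative activity = FL / FL of wild type (0.826). Sequences are the DNA template of the ribozyme.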
TATACTTTCGTAAGACACTTTGGATGGGTTG [3d811] yielded a fraction ligated of 0.145.

Regarding “TATCACTTGTCGTAAGAACTGGATGGGTTGA [3d2159]”, the fraction ligated was 0.802.

Take TATACTTGTCGAAGACACTTTGGAGGGTTGA [3d866]: the fraction ligated amounted to 0.0186.

In the case of “TATCACTTGTGTAAACACTTTGGATGGTTGA [3d1751]”, the fraction ligated is 0.328.

In the case of “TATCACTTGTCGTAACACTTTGATGGGTTGA [3d1997]”, the fraction ligated worked out at 0.464.

“TATCATTGTCGTAAGCACTTTGGTGGGTTGA [3d1242]” returned a fraction ligated of 0.0707.

Turning to AACTTGTCGTAAGACACTTTGGATGGGTTGA [3d24], the fraction ligated worked out at 0.293.

Sequence “TATCACTTGTCGAAGACCTTTGGTGGGTTGA [3d1945]” yielded a fraction ligated of 0.218.

TACACTTGTCGAAGAACTTTGGATGGGTTGA [3d649] had a fraction ligated of 0.195.

As for “TATCACTTGGTAAGACCTTTGGATGGGTTGA [3d1590]”, the fraction ligated was 0.765.

For TAACTTGTCGTAAGACATTTGGATGGGTTGA [3d520], the fraction ligated is 0.38.

As to TACACTTGTCGTAAGACACTTTGGAGGGTTGA [2d65], the fraction ligated amounted to 0.182.

As to “TATCACTTGTCGTAACACTTGGATGGGTTGA [3d1996]”, the fraction ligated was determined as 0.773.

Consider “TATCATTGTGTAAGAACTTTGGATGGGTTGA [3d1177]”, for which the fraction ligated stood at 0.856.

As for TTCACTTGTCGAAGACACTTTGGAGGGTTGA [3d425], the fraction ligated was determined as 0.157.

On to “TATCCTTGTCGTAAGACACTTTGGATGGTTA [3d1117]”, for which the fraction ligated turned out to be 0.0143.

For TATCACTGTCGTAAGACACTTTGGATGGGTTGA [1d7], the fraction ligated was determined as 0.806.

“TATCACTTGTCGTAAGACATTTGGATGGTTA [3d2227]” had a fraction ligated of 0.0433.

Regarding “TATCACTGTCGTAAGACACTTTGATGGTTGA [3d1450]”, the fraction ligated is 0.0354.

“TATCACTTGTCGTAAGACACTTGGTGGGTTG [3d2247]” came in with a fraction ligated of 0.0184.

As for “TATCCTTGTCGTAGCACTTTGGATGGGTTGA [3d1044]”, the fraction ligated was determined as 0.774.

The sequence “TATCACTTGTCGTAGACACTTGATGGGTTGA [3d2036]” gave a fraction ligated of 0.657.

In turn, “TATCACTTGTCTAAGACACTTTGGATGGTTGA [2d205]” returned a fraction ligated of 0.588.

As for TATACTTGTCGTAAGACATTTGGATGGGTTG [3d924], the fraction ligated was found to be 0.714.

The sequence TATCTTGTCGTAAGACACTTTGATGGGTTGA [3d752] registered a fraction ligated of 0.763.

Turning to “TATCACTTGTGTAAGACACTTGGATGGGTTG [3d1792]”, the fraction ligated was determined as 0.801.

Turning to TACCTTGTCGTAAGACATTTGGATGGGTTGA [3d539], the fraction ligated is 0.749.

For “TATCATTGCGTAAACACTTTGGATGGGTTGA [3d1160]”, the fraction ligated was 0.814.

As to ATCACTTTCGTAAGACACTTTGGATGGGTTGA [2d7], the fraction ligated was determined as 0.772.

Consider TATACTTGTCGAAACACTTTGGATGGGTTGA [3d858], for which the fraction ligated came to 0.756.

In turn, TATACTTGTCGTAAGACATTTGATGGGTTGA [3d919] yielded a fraction ligated of 0.735.

Sequence TATCCGTCGTAAGACACTTTGGATGGGTTGA [3d949] registered a fraction ligated of 0.798.

On to “TATCATGTCGTAAGACACTTTGGAGGGTTGA [3d1136]”, for which the fraction ligated came out at 0.0722.

Turning to TTCACTGTCGTAAGACACTTTGGATGGGTTGA [2d28], the fraction ligated turned out to be 0.795.

Take TATACTTGTGTAAGACATTTGGATGGGTTGA [3d835]: the fraction ligated came to 0.764.

Regarding TTCATTGTCGTAGACACTTTGGATGGGTTGA [3d323], the fraction ligated is 0.271.

For the sequence “TATCACTTGGTAAGACACTTTGGATGGGTTGA [2d163]”, the fraction ligated was 0.813.

TACACTTGTCGTAAACACTTGGATGGGTTGA [3d675] showed a fraction ligated of 0.0236.

In turn, “TATCCTTGTCGTAAGCACTTTGGATGGTTGA [3d1072]” came in with a fraction ligated of 0.0464.

In the case of “TATCACTTGTCGTAAGACATTTGGTGGTTGA [3d2221]”, the fraction ligated was 0.0037.

In turn, “TATCACTTGTCGTAAGACACTTTGGGGGTTA [3d2271]” registered a fraction ligated of 0.0237.

Consider TTCACTTGTCGAAGACACTTTGGATGGGTTA [3d427], for which the fraction ligated was determined as 0.28.

Consider ATCACTTGTCTAAACACTTTGGATGGGTTGA [3d173], for which the fraction ligated came to 0.77.

Take “TATCACTTGTCGTAAGAACTTTGGTGGGTTGA [2d257]”: the fraction ligated came out at 0.123.

TTACTTGTCGTAAGCACTTTGGATGGGTTGA [3d287] came in with a fraction ligated of 0.00788.

Regarding “TATCACTTTGTAAGACACTTTGGAGGGTTGA [3d1475]”, the fraction ligated came out at 0.0352.

TTCACTTGTCGTAAGACCTTTGGATGGTTGA [3d474] yielded a fraction ligated of 0.523.

In turn, ATCACTTGTCGTAAGCACTTTGGATGGGTTGA [2d14] had a fraction ligated of 0.782.

“TATCACTTTCGTAAGACACTTTGGAGGGTTA [3d1579]” showed a fraction ligated of 0.04.

For the sequence “TATCACTTGCGTAAGACATTTGGATGGGTTG [3d1680]”, the fraction ligated turned out to be 0.84.

“TATCACTTGTCGTAAACACTTGGATGGGTTGA [2d237]” yielded a fraction ligated of 0.786.

Sequence TATACTTGTCTAAGACACTTTGGATGGGTTGA [2d75] yielded a fraction ligated of 0.797.

TTCACTGCGTAAGACACTTTGGATGGGTTGA [3d338]: the fraction ligated amounted to 0.782.

In the case of TTCACTTGTCTAAGACACTTGGATGGGTTGA [3d409], the fraction ligated came to 0.435.

As to TTACTTGTCTAAGACACTTTGGATGGGTTGA [3d283], the fraction ligated was 0.147.

Consider TATACTTGTCGTAGAACTTTGGATGGGTTGA [3d873], for which the fraction ligated amounted to 0.831.

The sequence “TATCATTTCGTAGACACTTTGGATGGGTTGA [3d1143]” yielded a fraction ligated of 0.802.

“TATCACTTTCGTAAGCATTTGGATGGGTTGA [3d1531]” registered a fraction ligated of 0.791.

ATCATTGTCGTAAGACACTTTGGATGGGTTA [3d103] came in with a fraction ligated of 0.093.

In turn, “TATCATTGTCGAAACACTTTGGATGGGTTGA [3d1202]” registered a fraction ligated of 0.81.

With TATACTTGTCGTAAGCACTTTGGATGGTTGA [3d900], the fraction ligated is 0.0214.

Regarding “TATCACTTGTCGTAAACACTTTGATGGGTTGA [2d238]”, the fraction ligated was 0.763.

TACCTTGCGTAAGACACTTTGGATGGGTTGA [3d530] displayed a fraction ligated of 0.392.

TACACTTGTCGTAAGCACTTTGGTGGGTTGA [3d687] had a fraction ligated of 0.114.

Turning to ATACTTGTCGAAGACACTTTGGATGGGTTGA [3d53], the fraction ligated was found to be 0.268.

“TATCATTTCTAAGACACTTTGGATGGGTTGA [3d1141]” came in with a fraction ligated of 0.786.

TTCACTTGTCGTAAGACATTTGGATGGGTTGA [2d39] came in with a fraction ligated of 0.776.

Turning to ATCACTTGTTAAGACACTTTGGATGGGTTGA [3d156], the fraction ligated was determined as 0.787.

Regarding “TATCACTTGTCGTAAGCATTTGGATGGTTGA [3d2125]”, the fraction ligated stood at 0.17.

“TATCACTTGTCGTAAGACTTTGGAGGGTTGA [3d2110]” gave a fraction ligated of 0.0282.

Sequence TCACTTGTCGTAAGACACTTTGGATGGGTTGA [2d1] registered a fraction ligated of 0.796.

Consider TTACTTGTCGTAAGACACTTTGGATGGGTTGA [2d25], for which the fraction ligated was determined as 0.419.
